These results are taken from article PMC10153752, “Exo1 protects DNA nicks from ligation to promote crossover formation during meiosis”.

For this data set, the target named is T1, exo1-D173A (Saccharomyces cerevisiae, UniProt P39875 1-702, D173A).
T1 sequence: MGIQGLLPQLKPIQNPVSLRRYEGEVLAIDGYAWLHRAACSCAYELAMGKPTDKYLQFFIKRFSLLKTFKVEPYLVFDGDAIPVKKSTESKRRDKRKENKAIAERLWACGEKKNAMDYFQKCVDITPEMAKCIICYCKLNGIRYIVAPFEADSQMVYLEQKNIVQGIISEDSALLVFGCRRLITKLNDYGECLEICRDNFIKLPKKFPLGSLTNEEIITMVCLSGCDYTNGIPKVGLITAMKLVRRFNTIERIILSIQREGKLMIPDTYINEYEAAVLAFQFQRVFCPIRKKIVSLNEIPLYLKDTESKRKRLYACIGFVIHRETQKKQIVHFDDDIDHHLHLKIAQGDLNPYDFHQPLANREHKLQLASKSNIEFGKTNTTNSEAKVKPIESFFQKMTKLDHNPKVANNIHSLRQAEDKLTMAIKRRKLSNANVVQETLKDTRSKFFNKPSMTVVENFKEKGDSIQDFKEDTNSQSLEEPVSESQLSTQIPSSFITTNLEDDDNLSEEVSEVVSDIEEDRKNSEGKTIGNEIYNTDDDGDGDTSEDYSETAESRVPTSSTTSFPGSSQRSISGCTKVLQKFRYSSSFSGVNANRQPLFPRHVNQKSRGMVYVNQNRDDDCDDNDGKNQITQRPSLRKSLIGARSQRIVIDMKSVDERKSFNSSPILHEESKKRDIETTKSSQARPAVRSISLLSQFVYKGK
Nature of the data set: filter binding; no added metal, 0.01 mM EDTA; 15 nM DNA, 35 mM NaCl, 20 mM Tris pH 7.5, 0.04 mg/ml BSA, 0.01 mM EDTA, 0.1 mM DTT, 60 ul, 10 min at 30 C; KOH-treated nitrocellulose filter binding. To be noted: protein: recombinant; tags: FLAG; label: 5'-32P on AO3144 (8% labeled); nicked duplex with 19 nt 5' flap (AO3145 1-19); last 3 nt of AO3145 mismatch the 5' end of AO3144.

B1: 19 nt 5' flap substrate (AO3145 + AO3940 annealed to AO3144) (dsDNA)
DNA 1: ACAGCTACCGAATTCTGACTTGCTAGGACATCTTTGCCCACGTTGACCC
DNA 2: TCGATAGTCTCTAGATAGCATGTCCTAGCAAGTCAGAATTCGGTAGCGTG
DNA 3: GGGTCAACGTGGGCAAAG
Turning to B1, the binding result is on record as “binds”.
